From patent US20200140551A1 (GlaxoSmithKline, published 2020)

Assays:
[1] = molecular target: T1, human ICOS on human T cells (human, UniProt Q9Y6W8 21-167); assay: flow cytometry, activated human CD4 T cells, FITC MFI, donor 1123F59
T1 construct: endogenous receptor on primary cells; also called ICOS on CD4+ and CD8+ T cells of healthy human donors
T1 sequence: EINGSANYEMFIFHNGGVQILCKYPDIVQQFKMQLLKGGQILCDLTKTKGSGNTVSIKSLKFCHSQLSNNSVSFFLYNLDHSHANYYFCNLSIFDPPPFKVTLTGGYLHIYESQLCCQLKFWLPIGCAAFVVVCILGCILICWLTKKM
Method: (§1) Binding of H2L5 hIgG4PE was assessed in both naive and activated CD3+ T cells.
(§2) Either naive and/or activated CD3+ T cells were re-suspended in PBS with 0.1% BSA (FACS Buffer) containing Human FcR Blocking Solution at 2×10⁶ cells/mL (5 μl FcR Blocking Solution+[…] FACS Buffer per 1 mL). At a concentration of 2×10⁵ cells/well, 100 μl cells were placed into 2 mL 96 well Assay Blocks and incubated at room temperature for 15 minutes. During the incubation, a titration of the binding antibodies, anti-ICOS (H2L5 hIgG4PE) or IgG4 Isotype Control antibody was prepared as a 2× concentration. […] Following the binding incubation, cells were washed twice in 1 mL of FACS buffer, centrifuging at 400×g for 5 minutes at room temperature.
(§3) Data acquisition and compensation were performed on BD FACS instruments, LSR Fortessa X-20 or FACS Canto II using BD Diva (ver. 8.0) software. Data analysis employed Flow Jo software (ver.10.0.8r1). Results are reported as both MFI (Median Fluorescence Intensity) and Percent of cells positive for human IgG kappa light chain FITC staining out of the total live cells or appropriate parent population. EC50s were determined using Graphpad Prism 5 software (ver. 5.04) with non-linear regression of transformed data (X=(log(X)) using a variable slope with 4 parameters (log(Agonist) vs. response—Variable slope).

[2] = molecular target: T1, human ICOS on human T cells; assay: flow cytometry, activated human CD4 T cells, percent FITC positive, median of donors
Method: as §1, §2, §3

[3] = molecular target: T1, human ICOS on human T cells; assay: flow cytometry, activated human CD8 T cells, FITC MFI, donor 1173F42
Method: as §2, §3

human FcγR I = molecular target: T2, human FcγR I (human, UniProt P12314 16-288, limits assumed); assay: affinity to human Fcγ receptors; method not described
T2 construct: also called CD64

human FcγR IIa R131 = molecular target: T3, human FcγR IIa R131 (human, UniProt P12318 36-218, limits assumed); assay: as above
T3 sequence (looked up): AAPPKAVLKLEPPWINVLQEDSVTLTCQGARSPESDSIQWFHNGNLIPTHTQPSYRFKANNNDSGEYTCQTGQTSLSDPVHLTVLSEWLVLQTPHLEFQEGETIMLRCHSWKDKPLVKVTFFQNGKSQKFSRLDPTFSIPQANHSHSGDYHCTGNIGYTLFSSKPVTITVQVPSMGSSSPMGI

human FcγR IIb = molecular target: T4, human FcγR IIb (human, UniProt P31994 46-217, limits assumed); assay: as above
T4 sequence (looked up): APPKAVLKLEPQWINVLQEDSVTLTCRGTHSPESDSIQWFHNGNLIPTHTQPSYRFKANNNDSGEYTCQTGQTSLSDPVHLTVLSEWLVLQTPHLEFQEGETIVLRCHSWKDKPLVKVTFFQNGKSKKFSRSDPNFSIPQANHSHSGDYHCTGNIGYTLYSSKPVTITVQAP

[4] = molecular target: T1, human ICOS on human T cells; assay: flow cytometry, activated human CD8 T cells, percent FITC positive, donor 1173F42
Method: as §2, §3

[5] = molecular target: T1, human ICOS on human T cells; assay: flow cytometry, activated human CD4 T cells, FITC MFI, donor 1124F36
Method: as §1, §2, §3

[6] = molecular target: T1, human ICOS on human T cells; assay: flow cytometry, activated human CD4 T cells, percent FITC positive, donor 2100M39
Method: as §2, §3

[7] = molecular target: T1, human ICOS on human T cells; assay: flow cytometry, activated human CD4 T cells, percent FITC positive, donor 1123F59
Method: as §1, §2, §3

[8] = molecular target: T1, human ICOS on human T cells; assay: flow cytometry, activated human CD8 T cells, percent FITC positive, donor 1124F36
Method: as §1, §2, §3

[9] = molecular target: T1, human ICOS on human T cells; assay: flow cytometry, activated human CD8 T cells, percent FITC positive, donor 2100M39
Method: as §2, §3

[10] = molecular target: T1, human ICOS on human T cells; assay: flow cytometry, activated human CD8 T cells, percent FITC positive, mean of donors
Method: as §2, §3

human ICOS = molecular target: T5, human ICOS (human, UniProt Q9Y6W8 21-140, limits assumed); assay: MSD competition assay: inhibition of ICOS-L binding to ICOS by titrated antibody, bar chart in raw luminescence units
T5 sequence: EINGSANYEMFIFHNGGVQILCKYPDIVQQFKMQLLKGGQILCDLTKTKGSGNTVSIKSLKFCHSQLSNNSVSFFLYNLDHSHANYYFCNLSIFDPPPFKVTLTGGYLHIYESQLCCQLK

T2 sequence (P12314 16-288 limits assumed): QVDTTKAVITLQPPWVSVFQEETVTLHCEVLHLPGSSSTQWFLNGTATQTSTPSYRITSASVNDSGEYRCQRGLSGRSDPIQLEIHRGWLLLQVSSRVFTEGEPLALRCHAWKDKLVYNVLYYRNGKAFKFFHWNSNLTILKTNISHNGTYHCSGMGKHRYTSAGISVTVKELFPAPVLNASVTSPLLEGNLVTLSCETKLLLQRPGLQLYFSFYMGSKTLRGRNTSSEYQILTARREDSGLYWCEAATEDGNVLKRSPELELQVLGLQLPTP

B1: H2L5 hIgG4PE (antibody)
heavy: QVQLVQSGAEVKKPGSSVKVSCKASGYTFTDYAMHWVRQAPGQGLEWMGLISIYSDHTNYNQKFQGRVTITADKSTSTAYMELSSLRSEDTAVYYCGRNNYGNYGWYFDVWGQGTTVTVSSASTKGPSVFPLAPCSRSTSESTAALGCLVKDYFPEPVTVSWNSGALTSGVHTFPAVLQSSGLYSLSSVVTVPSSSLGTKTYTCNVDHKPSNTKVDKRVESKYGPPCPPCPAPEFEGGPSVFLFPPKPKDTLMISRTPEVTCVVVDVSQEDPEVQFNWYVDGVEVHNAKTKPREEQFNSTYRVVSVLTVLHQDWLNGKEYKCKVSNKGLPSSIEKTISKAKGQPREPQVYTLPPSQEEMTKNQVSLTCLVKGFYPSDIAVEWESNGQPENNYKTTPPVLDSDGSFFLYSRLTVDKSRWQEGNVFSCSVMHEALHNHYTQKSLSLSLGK
light: EIVLTQSPATLSLSPGERATLSCSASSSVSYMHWYQQKPGQAPRLLIYDTSKLASGIPARFSGSGSGTDYTLTISSLEPEDFAVYYCFQGSGYPYTFGQGTKLEIKRTVAAPSVFIFPPSDEQLKSGTASVVCLLNNFYPREAKVQWKVDNALQSGNSQESVTEQDSKDSTYSLSSTLTLSKADYEKHKVYACEVTHQGLSSPVTKSFNRGEC
notes: also called 422 H2L5 hIgG4PE; H2L5 IgG4PE; copies: 2 + 2
Q: What does the source list for B1?
A: EC50 [1]: 1.04 µg/mL; EC50 [2]: 0.834 µg/mL; EC50 [3]: 0.27 µg/mL; Kd (human FcγR I): 645 nM; Kd (human FcγR IIa R131): 2500 nM; Kd (human FcγR IIb): 1470 nM; EC50 [4]: 0.371 µg/mL; EC50 [5]: 0.628 µg/mL; EC50 [6]: 0.814 µg/mL; EC50 [7]: 0.853 µg/mL; EC50 [8]: 0.619 µg/mL; EC50 [9]: 1.23 µg/mL; EC50 [10]: 0.692 µg/mL; IC50 (read off the curve) (human ICOS): ~2 µg/mL
